Tested on: MS2 coat protein
Test: apparent KD of MS2 coat protein; designed switch direction (-1 OFF switch, 1 ON switch): -1; higher = weaker reporter binding
Method in brief: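 Three titration conditions were used: no input, 200 uM small-molecule ligand, and an oligonucleotide input. In each, SNAP-549-labelled MS2 coat protein was raised from 0.7 or 1.5 nM, doubling, to 3 µM over designed RNA switches transcribed on Illumina chips by stalled E. coli RNA polymerase. Curve fits of normalised cluster fluorescence gave values whose per-design median over clusters is the apparent KD.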

[1] = Eterna round: R95, input ligand: microRNA oligo, concentration not stated
[2] = Eterna round: R95, input ligand: FMN 200 uM
[3] = Eterna round: R95, input ligand: none
[4] = input ligand: microRNA oligo, concentration not stated

Sequence	apparent KD of MS2 coat protein [1]	apparent KD of MS2 coat protein [2]	apparent KD of MS2 coat protein [3]	apparent KD of MS2 coat protein (input ligand: FMN 200 uM)	apparent KD of MS2 coat protein (input ligand: none)	apparent KD of MS2 coat protein [4]
GUAGGGUCAGGAUAUACUGGCUGAGGGAUGUAUUGUAGUUGGUAGAAGGGACAUGAGGAUCACCCAUGUAAGUA [JR_Exclu4_Sub057] (puzzle: Exclusion 4)	33.2 nM					
GUACAGGUAGGAUAUCGAUACAAGAACAUGAGGAUCACCCAUGUGGGUCGAUUUUCGAAGCGAGAAGGACCAAAUG [Rixeatenso] (puzzle: Exclusion 5)	132 nM	406 nM	145 nM			
CUUUGCACGCUGCGGUCCUACAUGAGGAUCACCCAUGUGGUCUGGUGGCGUGGGUCGCCGGACUUGGCUCGUCUUGU [salish99_S_TOV1_R5_041] (Eterna round: R97, puzzle: Sensor, turn-off variant 1)				18.2 nM	18.8 nM	
AGUACUAACACGGUUGUGUUAGUACAAUAAGCUUGUGAAACAUGAGGAUCACCCAUGUCCUCAUAAGCUCGUCUUAU [salish99_TOv2_r3_070] (puzzle: Sensor v3, turn-off variant 2)	954 nM	16.1 nM	15.1 nM			
GCAAGCUUAAUCAGUAUGAACAUGAGGAUCACCCAUGUAUAAGGUAAUACUUUUGGGCCCUUUAUUACUCGUCUUAU [JR_STOV1_Sub029] (Eterna round: R97, puzzle: Sensor, turn-off variant 1)				67.4 nM	72.6 nM	
UUACCAUGCCGCCUAAUAGCUUUUUGCUCGUCUUAUAUUACAUGAGGAUCACCCAUGUAGAUCAUGUGGCGUGACCU [JL ViennaUCT Maridi mod 2] (puzzle: Sensor v3, turn-off variant 2)	39.6 nM	126 nM	121 nM			
CUGCUGGAGCGUCGCUUUGGUCGUACAUGAGGAUCACCCAUGUAGGAUAUGGUAAAAUUCGCCUGCUAGAAGGAUAGAGUGGUC [salish99_ExNG3_r04_618] (Eterna round: R96, puzzle: Exclusion NG 3)				142 nM	78.9 nM	93.6 nM
CGUGGCUUUUACGUGAGUGGUGGGUGCAACAGGUGGGUUACAUGAGGAUCACCCAUGUGCUCACUUGCUCGUCUUUU [Grok-var2-10] (puzzle: Sensor v3, turn-off variant 2)	17.5 nM	51.8 nM	52.5 nM			
CAGGACAGAGGAUAUACAUAGAUACAGAUUCAUGUAGAACUACAUGAGGAUCACCCAUGUAGAAGGCUGACCUG [Fiskers Ex 2 - 4] (Eterna round: R96, puzzle: Exclusion 2)				311 nM	31.5 nM	23.5 nM
CCCUUGUGAGGAUAUUUUUAAAAUGCUAACCACAAUUUUAUGAAGAAGGUACAUGAGGAUCACCCAUGUUUCUC [Tried to obey the law of the pack] (Eterna round: R97, puzzle: Exclusion 4)				20 nM	21 nM	
AACCAGCGAGGAUAUGCUUGCGCUUGUUCUGGUUAUAAUCGACUUGAGGAUCACCCAAGUAGAAGGUGCUGGCG [EX2 #56] (Eterna round: R97, puzzle: Exclusion 2)				28.7 nM	22.5 nM	
UGUGUGUCAGGAUAUGUGUGUGUGUGUGAAAGCGCGCGCGCGCAGAAGGGACAUGAGGAUCACCCAUGUGCGCG [-35.3, -34.3 kcal, A 20%, 6bis-6] (Eterna round: R97, puzzle: Exclusion 4)				484 nM	220 nM	
ACAAGUUUUUAGAUUCUUAACAUGAGGAUCACCCAUGUGCUCGUCUUGUUUGUACUAUCACCGCCGGUGAUAGUACA (Eterna round: R97, puzzle: Sensor, turn-off variant 1)				65 nM	81 nM	
GGUUGUUGUUUCCGUUCUUACAUGAGGAUCACCCAUGUUUCUUGUCGUGCUCGCGUUGCUCGUCUGGCUGCCUGUUG [salish99_TOv1_r3_070] (puzzle: Sensor v3, turn-off variant 1)	37.4 nM	41.2 nM	54.4 nM			
AAAAAACAAGGAUAUACGGAUGAAGAUUGUCUUAAUUUUUGACAUGAGGAUCACCCAUGUAGAAGGUGUUAAAA [JR_Exclusion2_Sub016] (puzzle: Exclusion 2)	158 nM					
ACAUGUCAUCGAGGAUAUUGGACACAUGAGGAUCACCCAUGUACUCGGAGGCUCUACCAUGAGUUCGAGAAGGCGAUGUACAUU [Ex NG2 #77] (Eterna round: R96, puzzle: Exclusion NG 2)				542 nM	230 nM	256 nM
AAUACAAGCUAUUGAUCCCACAUGAGGAUCACCCAUGUAUAUGCCGGUGACACCUGCAUGACGAUAGCUCGUCUUAU [Sensor-V1 #59] (Eterna round: R97, puzzle: Sensor, turn-off variant 1)				577 nM	758 nM	

Sequence	apparent KD of MS2 coat protein [1]	apparent KD of MS2 coat protein [2]	apparent KD of MS2 coat protein [3]	apparent KD of MS2 coat protein (input ligand: FMN 200 uM)	apparent KD of MS2 coat protein (input ligand: none)	apparent KD of MS2 coat protein [4]
UUAAGUUCAGGAUAUGAUGAAUUAAACAUGAGGAUCACCCAUGUAGAUCCUGAAUUAACAUCAGAAGGGAAUAUUU [JL-ex5-4.52 Brourd mod] (Eterna round: R97, puzzle: Exclusion 5)				24.4 nM	13.5 nM	
GCGCACCUACCAAAAGGUAGGCCAACAUGAGGAUCACCCAUGUAGGAUAUCGAUUGCUUUGCAGUCGAGAAGGGCAUGAUGCGC [JL ENG3 3.80 Mod 20] (Eterna round: R96, puzzle: Exclusion NG 3)				17.2 nM	19.9 nM	14.4 nM
AAAAAGGUAGGAUAUACGAAAAAAAAGGGUAGAAAAAAAACACAUGAGGAUCACCCAUGUAGAAGGACCAAAAA [salish99_ex2_r3_043] (puzzle: Exclusion 2)	26.8 nM	97.3 nM	26.1 nM			
UUAUUGUAUGUAGGAUAUGCGUAUUAUUAUUGGGCAGAAGGACAUGAGGAUCACCCAUGUAUGUUGUUGUUAUAUAUUAUAUAU [Title] (Eterna round: R96, puzzle: Exclusion NG 1)				61 nM	47.6 nM	39.3 nM
UGAAUACGUGUUAGGAUAUGGUUUGGUAUUUUAGAUUAGAAGGGACAUGAGGAUCACCCAUGUAAUUGAUAGGU [-13, -10.4 kcal, 30% A] (Eterna round: R97, puzzle: Brourd's mod of Exclusion 4)				38 nM	41.9 nM	
CCUGGGUCAUCUCCCAGGAACAACAUGAGGAUCACCCAUGUCUAGGAUAUCCACCAGUCAAUAAAGGAGAAGGAGACGGUGGUU [Onlaxe] (Eterna round: R96, puzzle: Exclusion NG 3)				22.2 nM	19.7 nM	14.6 nM
UGAUCACAUGAGGAUCACCCAUGUCAGGAUAUCUACAUUGAAGCUGCGGCUUCAAUGUAGAGAAGGGACAUAAU [E1/3-B3] (Eterna round: R97, puzzle: Exclusion 1)				117 nM	355 nM	
UCACGGGAUUGAGGAUAUAUAUUAAUUUUUACAAUAGAAGGCAAAUUGUUAGUUUUUUCACUAUACAUGAGGAUCACCCAUGUU [JR_ExcBG1_Sub079] (Eterna round: R96, puzzle: Exclusion NG 1)						18.9 nM
CAGGACAGAGGAUAUACAUAGAUACAGAUUCAUGUAGAACUACAUGAGGAUCACCCAUGUAGAAGGCUGACCUG [Fiskers Ex 2 - 4] (puzzle: Exclusion 2)	27.8 nM					
GAUUACACAAGCUUUAGGGACAUGAGGAUCACCCAUGUUCGUCUUAUUGAUCUAGGUACGCUGACGUACCUAGAUCU [JL-sv1-2.31 Brourd mod] (puzzle: Sensor v3, turn-off variant 1)	84.9 nM	14.5 nM	13.2 nM			
GGUACUCAAAGAGUACCAAUACGAACAUGAGGAUCACCCAUGUAGGAUAUGCUACUCAAAGAGUAGCAGAAGGAUAUGAUGAAU [Far Half Aptamer v16] (Eterna round: R96, puzzle: Exclusion NG 3)				41.1 nM	40.2 nM	30.8 nM
GAUGGAGAGCAGGAUAUCUUGGGUAAGCAUCAUAGAGAAGGGCUCACAUGAGGAUCACCCAUGUGGUCCAAGAA [Usbiridi] (puzzle: Exclusion 6)	14.1 nM					
AAUAAUUGUGACUUGGGUGACAUGAGGAUCACCCAUGUCACAAGCUUGUUGCUCGCCUUGUAAUUAACCCAUGUCAC [LRO Sensor-off var1-27 mod of Stov1-13-A1 by Brourd] (Eterna round: R97, puzzle: Sensor, turn-off variant 1)				22.2 nM	20.8 nM	
GACUGCUGAGGAUAUACAUGAGGAUCACCCAUGUGCUUCAGCUACGAGAGUAGCAUUGGUAGAAGGUAGUAGUC [LRO-Excl3-04] (puzzle: Exclusion 3)	11.1 nM					
AGGAGCAGAGGGAGAUCCAACAUGAGGAUCACCCAUGUCUCAUAAGCUUUUUGCUCAUCUUAUUGUACCUUGGUGCU [Mat - Sensor v3 - turn-off var 1 - JL Mod - D26] (puzzle: Sensor v3, turn-off variant 1)	14.3 nM	35.7 nM	37.9 nM			
GGGCCCGGAGGAUAUACAAUGGGUUUGGGAAACCGGGCCCUACAUGAGGAUCACCCAUGUAGAAGGCCGGGCCC [-41, -38.9 kcal A 24%, 5b,0] (Eterna round: R97, puzzle: Exclusion 2)				39.9 nM	34.2 nM	
CUUAGACAUGAGGAUCACCCAUGUGAGGAUAUGAUGCAGCAGUGGUCUACGCUGUGCAUCAGAAGGCACAUGUG (puzzle: Exclusion 1)	62.4 nM					
